From US20170312350A1

Tests used:
[1] = biological target: MHC/IGF2BP3-001 tetramer (human); experiment: tetramer staining, flow cytometry of RNA-electroporated CD8+ T-cells
MHC/NYESO1-001 tetramer = experiment: tetramer staining, flow cytometry of RNA-electroporated CD8+ T-cells (unrelated-peptide tetramer)
[2] = biological target: MHC/IGF2BP3-001 tetramer (human); experiment: tetramer binding by flow cytometry, lentivirally transduced primary T-cells, donor 1
[3] = biological target: MHC/IGF2BP3-001 tetramer (human); experiment: tetramer binding by flow cytometry, lentivirally transduced primary T-cells, donor 2

B1: TCR R10P1A7 (TCR, V domains shown)
V domain 1: GEDVEQSLFLSVREGDSSVINCTYTDSSSTYLYWYKQEPGAGLQLLTYIFSNMDMKQDQRLTVLLNKKDKHLSLRIADTQTGDSAIYFCAESKETRLMFGDGTQLVVKP
V domain 2: GAVVSQHPSWVICKSGTSVKIECRSLDFQATTMFWYRQFPKQSLMLMATSNEGSKATYEQGVEKDKFLINHASLTLSTLTVTSAHPEDSSFYICSARAGGHEQFFGPGTRLTVLE
% IGF2BP3-001 TET-positive primary CD8+ T-cells [1]: 6.78% | % NYESO1-001 TET-positive primary CD8+ T-cells (MHC/NYESO1-001 tetramer): 1.53%

B2: TCR R10P1A7 expressed from lentiviral construct 1863R (MSCV-R10P1A7A-2A-R10P1A7B-WPRE) (TCR, V domains shown)
V domain 1: B1 V domain 1
V domain 2: B1 V domain 2
% of CD3+ Tet+ [2]: 2.3% | % of CD8+ Tet+ [2]: 3.93% | % of CD3+ Tet+ [3]: 0.99% | % of CD8+ Tet+ [3]: 1.79%

B3: TCR R10P1A7 expressed from lentiviral construct 1864R (MSCV-R10P1A7B-2A-R10P1A7A-WPRE) (TCR, V domains shown)
V domain 1: B1 V domain 1
V domain 2: B1 V domain 2
% of CD3+ Tet+ [2]: 15.2% | % of CD8+ Tet+ [2]: 22% | % of CD3+ Tet+ [3]: 8.12% | % of CD8+ Tet+ [3]: 11.7%
